{
  "source": "patent US4423037A",
  "about": "“Inhibitors of peptide hormone action” (The General Hospital Corporation, priority 1982, dated 1983)",
  "test_system": "parathyroid hormone",
  "assay": "In vivo inhibition of PTH-stimulated urinary cyclic AMP excretion in thyroparathyroidectomized vitamin D deficient rats",
  "details": "same experiment as FIG. 1",
  "protocol": "The compound [Tyr-34]bPTH(7-34)amide was administered in vivo as an inhibitor of PTH stimulated biological activities. The effectivenss of the treatment was measured by measuring the urinary phosphate and cyclic AMP, standard procedures well known in endocrinology as valid measure of PTH activity. The dosage of PTH analogues used varied from more than 3.0 μg/Kg/hr to less than 15 mg/Kg/hr, optimally between 0.3 mg/Kg/hr and 1.5 mg/Kg/hr. Single bolus dosages were occassionally utilized as indicated containing the equivalent of many hours of the infusion procedure.\nMale weanling Holtzman rats were maintained on a purified vitamin D deficient diet containing 0.44% calcium and 0.30% phosphorous for 7 weeks. At this time, the rats weighed 130-170 g. Thyroparathyroidectomy of the vitamin D deficient rats was preformed under anesthesia with ketamin hydrochloride injected intratraperitoneally. The femoral vein was cannulated with a heparin-treated polyethylene tube, and the blood was collected via the catheter for determination of blood chemistries. When needed both femoral veins were cannulated. A polyethylene catheter was also inserted into the urinary bladder via the ventral approach. […]\nFIG. 2 is an experiment identical to that shown in FIG. 1, however, urinary cyclic AMP is now measured instead of urinary phosphate. […]",
  "data": [
    {"molecule": "bovine parathyroid hormone (protein, UniProt P01268 32-115, looked up, Parathyroid hormone, native 84-amino acid bovine parathyroid hormone, infused as the agonist) Parathyroid hormone: AVSEIQFMHNLGKHLSSMERVEWLRKKLQDVHNFVALGASIAYRDGSSQRPRKKEDNVLVESHQKSLGEADKADVDVLIKAKPQ", "values": [
      {"measurement": "effect on urine cyclic AMP production, substance administered alone (FIG. 2)", "result": "marked effect"}
    ]}
  ]
}
